Earlier results on one molecule are cited in patent US5380646A, “Thrombus detection using radiolabelled disintegrins” (Temple University of the Commonwealth System of Higher …, priority 1992, dated 1995).

In the data set the test system is thrombi. The following applies: literature, in words.

B1: tissue plasminogen activator: plasminogen activator (protein, UniProt P00750 36-562, looked up)
Tissue-type plasminogen …: SYQVICRDEKTQMIYQQHQSWLRPVLRSNRVEYCWCNSGRAQCHSVPVKSCSEPRCFNGGTCQQALYFSDFVCQCPEGFAGKCCEIDTRATCYEDQGISYRGTWSTAESGAECTNWNSSALAQKPYSGRRPDAIRLGLGNHNYCRNPDRDSKPWCYVFKAGKYSSEFCSTPACSEGNSDCYFGNGSAYRGTHSLTESGASCLPWNSMILIGKVYTAQNPSAQALGLGKHNYCRNPDGDAKPWCHVLKNRRLTWEYCDVPSCSTCGLRQYSQPQFRIKGGLFADIASHPWQAAIFAKHRRSPGERFLCGGILISSCWILSAAHCFQERFPPHHLTVILGRTYRVVPGEEEQKFEVEKYIVHKEFDDDTYDNDIALLQLKSDSSRCAQESSVVRTVCLPPADLQLPDWTECELSGYGKHEALSPFYSERLKEAHVRLYPSSRCTSQHLLNRTVTDNMLCAGDTRSGGPQANLHDACQGDSGGPLVCLNDGRMTLVGIISWGLGCGQKDVPGVYTKVTNYLDWIRDNMRP
Regarding B1, the “ability to image or detect thrombi” value is “only with marginal success”.
